Reference: paper PMC6042084

Target: T1, LPE1 (mature, without transit peptide) (Arabidopsis thaliana, UniProt Q9SNB7 69-665)
T1 sequence: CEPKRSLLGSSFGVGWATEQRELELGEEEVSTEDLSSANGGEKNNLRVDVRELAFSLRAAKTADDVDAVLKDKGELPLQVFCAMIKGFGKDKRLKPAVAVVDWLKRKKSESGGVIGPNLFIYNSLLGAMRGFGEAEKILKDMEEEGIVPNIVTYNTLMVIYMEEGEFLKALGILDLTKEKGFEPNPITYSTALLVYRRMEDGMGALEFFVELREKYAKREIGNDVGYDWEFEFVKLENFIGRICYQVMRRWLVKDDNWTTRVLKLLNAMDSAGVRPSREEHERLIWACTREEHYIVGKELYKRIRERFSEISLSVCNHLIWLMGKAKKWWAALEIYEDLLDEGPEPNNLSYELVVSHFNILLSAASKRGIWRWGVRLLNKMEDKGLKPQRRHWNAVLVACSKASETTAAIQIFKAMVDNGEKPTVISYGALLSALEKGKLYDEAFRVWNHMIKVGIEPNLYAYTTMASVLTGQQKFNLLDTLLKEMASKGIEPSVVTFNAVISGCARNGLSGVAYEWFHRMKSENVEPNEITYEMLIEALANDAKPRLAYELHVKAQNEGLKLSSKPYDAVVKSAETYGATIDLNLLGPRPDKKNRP
Experiment: EMSA

B1: psbA 5' UTR probe (full length, first 82 nt) (ssRNA)
RNA: UUCAUAACAAGCUCUCAAUUAUCUACUUAGAGAAUUUGUGCGCUUGGAGUCCCUGAUUAUUAAAUAAACCAAGGAUUUUACC
Q: Does B1 bind?
A: binds
